Here are results for four molecules from patent publication US20180155451A1 (published 2018).

Assay in all cases: SPR (Biacore); KD of H240-Kn061/H240-Hl071/L73-k0 divided by KD of the variant
(In general: Surface plasmon resonance follows binding to a sensor surface in real time, without labels.)

The target in one test is T1, FcgRIIb (human, UniProt P31994 43-217).
T1 construct: extracellular domain; also called FcγRIIb; not shown: His tag attached to the C terminus
T1 sequence (looked up): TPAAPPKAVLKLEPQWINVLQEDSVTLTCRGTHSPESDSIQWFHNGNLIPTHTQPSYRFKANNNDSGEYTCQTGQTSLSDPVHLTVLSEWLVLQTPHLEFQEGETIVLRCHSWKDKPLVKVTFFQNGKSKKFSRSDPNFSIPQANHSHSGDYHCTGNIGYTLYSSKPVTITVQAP
The method, then:
(§1) The antibodies were assessed for the binding to each FcgR. […] The resultant value was defined as relative KD, and used as an assessment indicator.
(§2) Analysis of interaction between obj ective antibody and the FcγR was carried out using Biacore T100 (GE Healthcare), Biacore T200, Biacore A100, and Biacore 4000. HBS-EP+ (GE Healthcare) was used as the running buffer, and the measurement temperature was set to 25° C. Chips produced by immobilizing the antigen peptide by the amine coupling method to a Series S sensor Chip CM5 (GE Healthcare), chips produced by allowing preliminarily biotinylated antigen peptides to interact with and immobilize onto a Series S Sensor Chip SA (certified) (GE Healthcare), chips produced by immobilizing Protein L (ACTIGEN, BioVision) to Series S Sencor Chip CM5 (GE Healthcare), or chips produced by immobilizing Protein A/G (Thermo Scientific) to Series S Sencor Chip CM5 (GE Healthcare) were used. Antibodies of interest were captured onto these chips, and allowed to interact to each FcγR diluted with running buffer.

Another test concerns the target T2, FcgRIIIa V (human, UniProt P08637 17-208).
T2 construct: extracellular domain; also called FcγRIIIa V; not shown: His tag attached to the C terminus
The method, then:
as §1, §2

The target in another test is T3, FcgRIIIa F (human, UniProt P08637 17-208).
T3 construct: extracellular domain; also called FcγRIIIa F; 3aF; not shown: His tag attached to the C terminus
The method, then:
as §1, §2

T3 sequence (P08637 17-208): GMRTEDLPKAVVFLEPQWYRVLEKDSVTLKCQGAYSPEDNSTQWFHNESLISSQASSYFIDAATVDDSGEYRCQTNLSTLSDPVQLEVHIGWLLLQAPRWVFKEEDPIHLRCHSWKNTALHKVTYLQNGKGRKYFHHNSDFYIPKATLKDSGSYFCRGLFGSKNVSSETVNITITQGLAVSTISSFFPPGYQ
T2 sequence (P08637 17-208 F176V limits assumed): as the sequence (P08637 17-208) above, with F160V counted along it

B1: H240-Kn061 (Y234S)/H240-Hl071/L73-k0 (antibody, human IgG1, kappa)
heavy 1: QDQLVQSGAEVKKPGASVKVSCKASGFNIKDTYIQWVRQAPGQGLEWMGRIDPLRKQTKYREKFEGRVTITADTSTNTAYMELSSLRSEDTAVYYCVRSGREFDYWGQGTLVTVSSASTKGPSVFPLAPSSKSTSGGTAALGCLVKDYFPEPVTVSWNSGALTSGVHTFPAVLQSSGLYSLSSVVTVPSSSLGTQTYICNVNHKPSNTKVDKKVEPKSCDKTHTCPPCPAPESYWGPSVFLFPPKPKDTLMISRTPEVTCVVVDVSDEDPEVKFNWYVDGVEVHNAKTKPREEQYNATYRVVSVLTVLHQDWLNGKEYKCKVSNKALPAPIEKTISKAKGQPREPQVCTLPPSRDELTKNQVSLWCLVKGFYPSDIAVEWESNGQPENNYKTTPPVLDSDGSFFLYSKLTVDKSRWQQGNVFSCSVMHEALHNHYTQKSLSLSP
heavy 2: QDQLVQSGAEVKKPGASVKVSCKASGFNIKDTYIQWVRQAPGQGLEWMGRIDPLRKQTKYREKFEGRVTITADTSTNTAYMELSSLRSEDTAVYYCVRSGREFDYWGQGTLVTVSSASTKGPSVFPLAPSSKSTSGGTAALGCLVKDYFPEPVTVSWNSGALTSGVHTFPAVLQSSGLYSLSSVVTVPSSSLGTQTYICNVNHKPSNTKVDKKVEPKSCDKTHTCPPCPAPELLGGPSVFLFPPKPKDTLMISRTPEVTCVVVDVSHEDPEVKFNWYVDGVEVHNAKTKPREEQYNSTYRVVSVLTVLHQDWLNGKEYKCKVSNDALPMPIEETISKAKGQPREPQVYTLPPSRCELTKNQVSLSCAVKGFYPSDIAVEWESNGQPENNYKTTPPVLDSDGSFFLVSKLTVDKSRWQQGNVFSCSVMHEALHNHYTQKSLSLSP
light: DIQMTQSPSSLSASVGDRVTITCRASQDIHKYIAWYQQKPGQAPRLLIQYTSTLQPGVPSRFSGSGSGTDYTFTISSLQPEDIATYYCLQYEQLRTFGGGTKVEIKRTVAAPSVFIFPPSDEQLKSGTASVVCLLNNFYPREAKVQWKVDNALQSGNSQESVTEQDSKDSTYSLSSTLTLSKADYEKHKVYACEVTHQGLSSPVTKSFNRGEC
B1: the “Relative KD” value was 1 with FcgRIIb, 0.9 with FcgRIIIa V and 0.9 with FcgRIIIa F.

B2: H240-Kn061 (Y235L)/H240-Hl071/L73-k0 (antibody, human IgG1, kappa)
heavy 1: QDQLVQSGAEVKKPGASVKVSCKASGFNIKDTYIQWVRQAPGQGLEWMGRIDPLRKQTKYREKFEGRVTITADTSTNTAYMELSSLRSEDTAVYYCVRSGREFDYWGQGTLVTVSSASTKGPSVFPLAPSSKSTSGGTAALGCLVKDYFPEPVTVSWNSGALTSGVHTFPAVLQSSGLYSLSSVVTVPSSSLGTQTYICNVNHKPSNTKVDKKVEPKSCDKTHTCPPCPAPEYLWGPSVFLFPPKPKDTLMISRTPEVTCVVVDVSDEDPEVKFNWYVDGVEVHNAKTKPREEQYNATYRVVSVLTVLHQDWLNGKEYKCKVSNKALPAPIEKTISKAKGQPREPQVCTLPPSRDELTKNQVSLWCLVKGFYPSDIAVEWESNGQPENNYKTTPPVLDSDGSFFLYSKLTVDKSRWQQGNVFSCSVMHEALHNHYTQKSLSLSP
heavy 2: QDQLVQSGAEVKKPGASVKVSCKASGFNIKDTYIQWVRQAPGQGLEWMGRIDPLRKQTKYREKFEGRVTITADTSTNTAYMELSSLRSEDTAVYYCVRSGREFDYWGQGTLVTVSSASTKGPSVFPLAPSSKSTSGGTAALGCLVKDYFPEPVTVSWNSGALTSGVHTFPAVLQSSGLYSLSSVVTVPSSSLGTQTYICNVNHKPSNTKVDKKVEPKSCDKTHTCPPCPAPELLGGPSVFLFPPKPKDTLMISRTPEVTCVVVDVSHEDPEVKFNWYVDGVEVHNAKTKPREEQYNSTYRVVSVLTVLHQDWLNGKEYKCKVSNDALPMPIEETISKAKGQPREPQVYTLPPSRCELTKNQVSLSCAVKGFYPSDIAVEWESNGQPENNYKTTPPVLDSDGSFFLVSKLTVDKSRWQQGNVFSCSVMHEALHNHYTQKSLSLSP
light: DIQMTQSPSSLSASVGDRVTITCRASQDIHKYIAWYQQKPGQAPRLLIQYTSTLQPGVPSRFSGSGSGTDYTFTISSLQPEDIATYYCLQYEQLRTFGGGTKVEIKRTVAAPSVFIFPPSDEQLKSGTASVVCLLNNFYPREAKVQWKVDNALQSGNSQESVTEQDSKDSTYSLSSTLTLSKADYEKHKVYACEVTHQGLSSPVTKSFNRGEC
With B2, the results for the “Relative KD” value with FcgRIIb, with FcgRIIIa V and with FcgRIIIa F were 0.9, 1.5 and 1.8, respectively.

B3: H240-Kn061 (Y235F)/H240-Hl071/L73-k0 (antibody, human IgG1, kappa)
heavy 1: QDQLVQSGAEVKKPGASVKVSCKASGFNIKDTYIQWVRQAPGQGLEWMGRIDPLRKQTKYREKFEGRVTITADTSTNTAYMELSSLRSEDTAVYYCVRSGREFDYWGQGTLVTVSSASTKGPSVFPLAPSSKSTSGGTAALGCLVKDYFPEPVTVSWNSGALTSGVHTFPAVLQSSGLYSLSSVVTVPSSSLGTQTYICNVNHKPSNTKVDKKVEPKSCDKTHTCPPCPAPEYFWGPSVFLFPPKPKDTLMISRTPEVTCVVVDVSDEDPEVKFNWYVDGVEVHNAKTKPREEQYNATYRVVSVLTVLHQDWLNGKEYKCKVSNKALPAPIEKTISKAKGQPREPQVCTLPPSRDELTKNQVSLWCLVKGFYPSDIAVEWESNGQPENNYKTTPPVLDSDGSFFLYSKLTVDKSRWQQGNVFSCSVMHEALHNHYTQKSLSLSP
heavy 2: QDQLVQSGAEVKKPGASVKVSCKASGFNIKDTYIQWVRQAPGQGLEWMGRIDPLRKQTKYREKFEGRVTITADTSTNTAYMELSSLRSEDTAVYYCVRSGREFDYWGQGTLVTVSSASTKGPSVFPLAPSSKSTSGGTAALGCLVKDYFPEPVTVSWNSGALTSGVHTFPAVLQSSGLYSLSSVVTVPSSSLGTQTYICNVNHKPSNTKVDKKVEPKSCDKTHTCPPCPAPELLGGPSVFLFPPKPKDTLMISRTPEVTCVVVDVSHEDPEVKFNWYVDGVEVHNAKTKPREEQYNSTYRVVSVLTVLHQDWLNGKEYKCKVSNDALPMPIEETISKAKGQPREPQVYTLPPSRCELTKNQVSLSCAVKGFYPSDIAVEWESNGQPENNYKTTPPVLDSDGSFFLVSKLTVDKSRWQQGNVFSCSVMHEALHNHYTQKSLSLSP
light: DIQMTQSPSSLSASVGDRVTITCRASQDIHKYIAWYQQKPGQAPRLLIQYTSTLQPGVPSRFSGSGSGTDYTFTISSLQPEDIATYYCLQYEQLRTFGGGTKVEIKRTVAAPSVFIFPPSDEQLKSGTASVVCLLNNFYPREAKVQWKVDNALQSGNSQESVTEQDSKDSTYSLSSTLTLSKADYEKHKVYACEVTHQGLSSPVTKSFNRGEC
As for B3, the figures for the “Relative KD” value with FcgRIIb, with FcgRIIIa V and with FcgRIIIa F were 1.2, 1.5 and 1.3, respectively.

B4: H240-Kn061 (Y235E)/H240-Hl071/L73-k0 (antibody, human IgG1, kappa)
heavy 1: QDQLVQSGAEVKKPGASVKVSCKASGFNIKDTYIQWVRQAPGQGLEWMGRIDPLRKQTKYREKFEGRVTITADTSTNTAYMELSSLRSEDTAVYYCVRSGREFDYWGQGTLVTVSSASTKGPSVFPLAPSSKSTSGGTAALGCLVKDYFPEPVTVSWNSGALTSGVHTFPAVLQSSGLYSLSSVVTVPSSSLGTQTYICNVNHKPSNTKVDKKVEPKSCDKTHTCPPCPAPEYEWGPSVFLFPPKPKDTLMISRTPEVTCVVVDVSDEDPEVKFNWYVDGVEVHNAKTKPREEQYNATYRVVSVLTVLHQDWLNGKEYKCKVSNKALPAPIEKTISKAKGQPREPQVCTLPPSRDELTKNQVSLWCLVKGFYPSDIAVEWESNGQPENNYKTTPPVLDSDGSFFLYSKLTVDKSRWQQGNVFSCSVMHEALHNHYTQKSLSLSP
heavy 2: QDQLVQSGAEVKKPGASVKVSCKASGFNIKDTYIQWVRQAPGQGLEWMGRIDPLRKQTKYREKFEGRVTITADTSTNTAYMELSSLRSEDTAVYYCVRSGREFDYWGQGTLVTVSSASTKGPSVFPLAPSSKSTSGGTAALGCLVKDYFPEPVTVSWNSGALTSGVHTFPAVLQSSGLYSLSSVVTVPSSSLGTQTYICNVNHKPSNTKVDKKVEPKSCDKTHTCPPCPAPELLGGPSVFLFPPKPKDTLMISRTPEVTCVVVDVSHEDPEVKFNWYVDGVEVHNAKTKPREEQYNSTYRVVSVLTVLHQDWLNGKEYKCKVSNDALPMPIEETISKAKGQPREPQVYTLPPSRCELTKNQVSLSCAVKGFYPSDIAVEWESNGQPENNYKTTPPVLDSDGSFFLVSKLTVDKSRWQQGNVFSCSVMHEALHNHYTQKSLSLSP
light: DIQMTQSPSSLSASVGDRVTITCRASQDIHKYIAWYQQKPGQAPRLLIQYTSTLQPGVPSRFSGSGSGTDYTFTISSLQPEDIATYYCLQYEQLRTFGGGTKVEIKRTVAAPSVFIFPPSDEQLKSGTASVVCLLNNFYPREAKVQWKVDNALQSGNSQESVTEQDSKDSTYSLSSTLTLSKADYEKHKVYACEVTHQGLSSPVTKSFNRGEC
As to B4, the “Relative KD” value with FcgRIIb is 0.8; with FcgRIIIa V it was 3.2; with FcgRIIIa F it was 2.2.
